This is an account of results in US7521047 (GPC BIOTECH, dated 2009).

Experiment [1] addresses T1, human MHC class II DR protein (DRA*0101/DRB1*0401), purified from PRIESS cells (human, UniProt P01903 26-254; P01911 30-266, limits assumed).
T1 construct: mature; also called HLA-DR protein; MHCII
T1 MHC II alpha: not shown
T1 MHC II beta: not shown
Briefly: SPR (BIAcore), MHCII on CM5 chip.

Experiment [2] has as its target T1, human MHC class II DR protein …. Briefly: SPR (BIAcore), chip density 4000 RU MHCII.
Experiment [3] addresses chimeric 0401-IE class II molecule on cells of transgenic mice (human/murine chimera). Briefly: cell-based or functional assay.
The target in experiment [4] is T1, human MHC class II DR protein …. The experiment in a line: SPR (BIAcore), MHCII on CM5 chip.
Experiment [5] has the same target. The experiment in a line: ELISA, coated antigen, Fab 100 ng/well, read at 370 nm. As for the experimental part:
After washing in PBS the anti-human IgG F(ab')_2-peroxidase-conjugate at a 1:10,000 dilution in TBS (supplemented with 5% w/v non-fat drymilk/0.05% v/v Tween 20) was added to each well for 1 h. Final washes were carried out in PBS followed the addition the substrate POD (Roche).

For experiment [6], the target named is T2, HLA-DR (DRA*0101/DRB1*0401) on PRIESS cells (human, UniProt P01903 26-254; P01911 30-266).
T2 MHC II alpha: not shown
T2 MHC II beta: not shown
Briefly: cell-based or functional assay.

B1: MS-GPC-8-1 Fab (Fab, V domains shown)
VH: QVQLKESGPALVKPTQTLTLTCTFSGFSLSTSGVGVGWIRQPPGKALEWLALIDWDDDKYYSTSLKTRLTISKDTSKNQVVLTMTNMDPVDTATYYCARSPRYRGAFDYWGQGTLVTVSS
VL: DIVLTQPPSVSGAPGQRVTISCSGSSSNIGSNYVSWYQQLPGTAPKLLIYDNNQRPSGVPDRFSGSKSGTSASLAITGLQSEDEADYYCQSYDFSHYVFGGGTKLTVLG
notes: Fab: VH-CH1 with FLAG tag and STREP tag II, VL-CL; VH residue 1 is Q in Fab
In the case of B1, in experiment [1], the Kd is 108 nM, the koff amounted to 0.0209 s⁻¹ and the kon stood at 193000 M⁻¹ s⁻¹. For the same molecule, in experiment [2], binding was put at a Kd of 108 nM, the koff was found to be 0.0209 s⁻¹ and the kon was 193000 M⁻¹ s⁻¹.

B2: MS-GPC-8-6-2 IgG (antibody, V domains shown)
VH: QVQLKESGPALVKPTQTLTLTCTFSGFSLSTSGVGVGWIRQPPGKALEWLALIDWDDDKYYSTSLKTRLTISKDTSKNQVVLTMTNMDPVDTATYYCARSPRYRGAFDYWGQGTLVTVSS
VL: DIVLTQPPSVSGAPGQRVTISCSGSESNIGSNYVHWYQQLPGTAPKLLIYDNNQRPSGVPDRFSGSKSGTSASLAITGLQSEDEADYYCQSYDYDHYVFGGGTKLTVLG
With B2, in experiment [3], the “IC50 of inhibition of IL-2 secretion from T-Hyb 1 cells” value (“IC50 of inhibition of IL-2 secretion” below) stood at 3.6 nM and the “Maximum inhibition(%) of IL-2 secretion” value stood at 100%.

B3: MS-GPC-8-6 IgG (antibody, V domains shown)
VH: QVQLKESGPALVKPTQTLTLTCTFSGFSLSTSGVGVGWIRQPPGKALEWLALIDWDDDKYYSTSLKTRLTISKDTSKNQVVLTMTNMDPVDTATYYCARSPRYRGAFDYWGQGTLVTVSS
VL: DIVLTQPPSVSGAPGQRVTISCSGSSSNIGSNYVSWYQQLPGTAPKLLIYDNNQRPSGVPDRFSGSKSGTSASLAITGLQSEDEADYYCQSYDYDHYVFGGGTKLTVLG
Turning to B3, in experiment [3], the “IC50 of inhibition of IL-2 secretion” value is 6.7 nM and the “Maximum inhibition(%) of IL-2 secretion” value was found to be 100%.

B4: MS-GPC-8-27 Fab (Fab, V domains shown)
VH: QVQLKESGPALVKPTQTLTLTCTFSGFSLSTSGVGVGWIRQPPGKALEWLALIDWDDDKYYSTSLKTRLTISKDTSKNQVVLTMTNMDPVDTATYYCARSPRYRGAFDYWGQGTLVTVSS
VL: DIVLTQPPSVSGAPGQRVTISCSGSSSNIGSNYVSWYQQLPGTAPKLLIYDNNQRPSGVPDRFSGSKSGTSASLAITGLQSEDEADYYCQSYDMNVHVFGGGTKLTVLG
notes: as for B1
Consider B4, for which the koff in experiment [1] came out at 0.0066 s⁻¹.

B5: MS-GPC-8-10 Fab (Fab, V domains shown)
VH: QVQLKESGPALVKPTQTLTLTCTFSGFSLSTSGVGVGWIRQPPGKALEWLALIDWDDDKYYSTSLKTRLTISKDTSKNQVVLTMTNMDPVDTATYYCARSPRYRGAFDYWGQGTLVTVSS
VL: DIVLTQPPSVSGAPGQRVTISCSGSSSNIGSNYVSWYQQLPGTAPKLLIYDNNQRPSGVPDRFSGSKSGTSASLAITGLQSEDEADYYCQSYDLIRHVFGGGTKLTVLG
notes: as for B1
In the case of B5, the koff in experiment [1] stood at 0.007 s⁻¹.

B6: MS-GPC-8-9 Fab (Fab, V domains shown)
VH: QVQLKESGPALVKPTQTLTLTCTFSGFSLSTSGVGVGWIRQPPGKALEWLALIDWDDDKYYSTSLKTRLTISKDTSKNQVVLTMTNMDPVDTATYYCARSPRYRGAFDYWGQGTLVTVSS
VL: DIVLTQPPSVSGAPGQRVTISCSGSSSNIGSNYVSWYQQLPGTAPKLLIYDNNQRPSGVPDRFSGSKSGTSASLAITGLQSEDEADYYCQSYDIQLHVFGGGTKLTVLG
notes: as for B1
In experiment [1], B6 displayed a Kd of 90.1 nM, a koff of 0.0166 s⁻¹ and a kon of 185000 M⁻¹ s⁻¹. In experiment [2], this molecule came in with a Kd of 90.1 nM, a koff of 0.0166 s⁻¹ and a kon of 185000 M⁻¹ s⁻¹.

B7: MS-GPC-8-27-7 Fab (Fab, V domains shown)
VH: QVQLKESGPALVKPTQTLTLTCTFSGFSLSTSGVGVGWIRQPPGKALEWLALIDWDDDKYYSTSLKTRLTISKDTSKNQVVLTMTNMDPVDTATYYCARSPRYRGAFDYWGQGTLVTVSS
VL: DIVLTQPPSVSGAPGQRVTISCSGSESNIGNNYVGWYQQLPGTAPKLLIYDNNQRPSGVPDRFSGSKSGTSASLAITGLQSEDEADYYCQSYDMNVHVFGGGTKLTVLG
notes: as for B1
Turning to B7, in experiment [3], the “IC50 of inhibition of IL-2 secretion” value is 5.9 nM (half the concentration of the Fab) and the “Maximum inhibition(%) of IL-2 secretion” value was 100%. In experiment [1], this molecule came in with a Kd of 3.3 nM, an off-rate constant (koff) of 0.00057 s⁻¹ and a kon of 174000 M⁻¹ s⁻¹. Moreover, in experiment [4], the Kd came to 3.3 nM, the koff was determined as 0.00057 s⁻¹ and the kon came out at 170000 M⁻¹ s⁻¹. The ELISA signal in experiment [5] amounted to 1.55.

B8: MS-GPC-8-18 Fab (Fab, V domains shown)
VH: QVQLKESGPALVKPTQTLTLTCTFSGFSLSTSGVGVGWIRQPPGKALEWLALIDWDDDKYYSTSLKTRLTISKDTSKNQVVLTMTNMDPVDTATYYCARSPRYRGAFDYWGQGTLVTVSS
VL: DIVLTQPPSVSGAPGQRVTISCSGSSSNIGSNYVSWYQQLPGTAPKLLIYDNNQRPSGVPDRFSGSKSGTSASLAITGLQSEDEADYYCQSYDFSIYVFGGGTKLTVLG
notes: as for B1
Regarding B8, in experiment [1], binding was characterised by a dissociation constant (Kd) of 78.3 nM, the koff stood at 0.0083 s⁻¹ and the kon amounted to 106000 M⁻¹ s⁻¹. In experiment [2], the Kd worked out at 78.3 nM, the koff worked out at 0.0083 s⁻¹ and the kon is 106000 M⁻¹ s⁻¹.

B9: MS-GPC-8-6-13 Fab (Fab, V domains shown)
VH: QVQLKESGPALVKPTQTLTLTCTFSGFSLSTSGVGVGWIRQPPGKALEWLALIDWDDDKYYSTSLKTRLTISKDTSKNQVVLTMTNMDPVDTATYYCARSPRYRGAFDYWGQGTLVTVSS
VL: DIVLTQPPSVSGAPGQRVTISCSGSESNIGANYVTWYQQLPGTAPKLLIYDNNQRPSGVPDRFSGSKSGTSASLAITGLQSEDEADYYCQSYDYDHYVFGGGTKLTVLG
notes: Fab: VH-CH1 with FLAG tag and STREP tag II, VL-CL; VH residue 1 is Q in Fab; also called 305D3
Take B9: in experiment [3], the “IC50 of inhibition of IL-2 secretion” value is 2.1 nM (half the concentration of the Fab) and the “Maximum inhibition(%) of IL-2 secretion” value was found to be 100%. Moreover, in experiment [4], binding was put at a Kd of 3 nM, the koff is 0.00055 s⁻¹ and the kon worked out at 190000 M⁻¹ s⁻¹. This molecule registered an ELISA signal in experiment [5] of 1.47.

B10: MS-GPC-8-6-19 Fab (Fab, V domains shown)
VH: QVQLKESGPALVKPTQTLTLTCTFSGFSLSTSGVGVGWIRQPPGKALEWLALIDWDDDKYYSTSLKTRLTISKDTSKNQVVLTMTNMDPVDTATYYCARSPRYRGAFDYWGQGTLVTVSS
VL: DIVLTQPPSVSGAPGQRVTISCSGSESNIGSNYVAWYQQLPGTAPKLLIYDNNQRPSGVPDRFSGSKSGTSASLAITGLQSEDEADYYCQSYDYDHYVFGGGTKLTVLG
notes: as for B1
B10: in experiment [3], the “IC50 of inhibition of IL-2 secretion” value is 5.3 nM (half the concentration of the Fab) and the “Maximum inhibition(%) of IL-2 secretion” value came to 100%. Besides, in experiment [1], binding was characterised by a dissociation constant (Kd) of 8.74 nM, the koff is 0.00096 s⁻¹ and the kon is 110000 M⁻¹ s⁻¹. In experiment [4], this molecule returned a Kd of 9 nM, a koff of 0.001 s⁻¹ and a kon of 110000 M⁻¹ s⁻¹.

B11: MS-GPC-8-6-2 Fab (Fab, V domains shown)
VH: QVQLKESGPALVKPTQTLTLTCTFSGFSLSTSGVGVGWIRQPPGKALEWLALIDWDDDKYYSTSLKTRLTISKDTSKNQVVLTMTNMDPVDTATYYCARSPRYRGAFDYWGQGTLVTVSS
VL: DIVLTQPPSVSGAPGQRVTISCSGSESNIGSNYVHWYQQLPGTAPKLLIYDNNQRPSGVPDRFSGSKSGTSASLAITGLQSEDEADYYCQSYDYDHYVFGGGTKLTVLG
notes: as for B1
For B11, in experiment [6], the “EC50 of cell killing, cross-linked Fab, bivalent agent” value was found to be 8 nM. For the same molecule, in experiment [3], the “IC50 of inhibition of IL-2 secretion” value was 4.7 nM (half the concentration of the Fab) and the “Maximum inhibition(%) of IL-2 secretion” value is 100%. In experiment [1], this molecule had a Kd of 7.61 nM, a koff of 0.00094 s⁻¹ and a kon of 123000 M⁻¹ s⁻¹. In experiment [4], the Kd came out at 7.6 nM, the koff was 0.00094 s⁻¹ and the kon is 120000 M⁻¹ s⁻¹.

B12: MS-GPC-8-6-45 Fab (Fab, V domains shown)
VH: QVQLKESGPALVKPTQTLTLTCTFSGFSLSTSGVGVGWIRQPPGKALEWLALIDWDDDKYYSTSLKTRLTISKDTSKNQVVLTMTNMDPVDTATYYCARSPRYRGAFDYWGQGTLVTVSS
VL: DIVLTQPPSVSGAPGQRVTISCSGSEPNIGSNYVFWYQQLPGTAPKLLIYDNNQRPSGVPDRFSGSKSGTSASLAITGLQSEDEADYYCQSYDYDHYVFGGGTKLTVLG
notes: as for B1
Consider B12, for which, in experiment [1], the Kd was 8.63 nM, the koff worked out at 0.00103 s⁻¹ and the kon is 120000 M⁻¹ s⁻¹. In experiment [4], the affinity, expressed as Kd, was 8.6 nM; the koff is 0.00103 s⁻¹; the kon came to 120000 M⁻¹ s⁻¹.

B13: L243 (antibody, V domains shown)
VH: QIQLVQSGPELKKPGETVKISCKASGFTFTNYGMNWVKQAPGKGLKWMGWINTYTREPTYADDFKGRFAFSLETSASTAYLQINNLKNEDTAKYFCARDITAVVPTGFDYWGQGTTLTVSS
VL: DIQMTQSPASLSVSVGETVTITCRASENIYSNLAWYRQKQGKSPQLLVFAASNLADGVPSRFSGSGSGTQYSLKINSLQSEDFGDYYCQHFWTTPWAFGGGTNLEIK
Turning to B13, in experiment [6], the “EC50 of cell killing, mIgG” value was found to be 47 nM.
